T1: ERα (Homo sapiens, UniProt P03372)
T1 construct: expressed in transfected cells; host or cells: COS-7
T1 sequence (P03372 1-595): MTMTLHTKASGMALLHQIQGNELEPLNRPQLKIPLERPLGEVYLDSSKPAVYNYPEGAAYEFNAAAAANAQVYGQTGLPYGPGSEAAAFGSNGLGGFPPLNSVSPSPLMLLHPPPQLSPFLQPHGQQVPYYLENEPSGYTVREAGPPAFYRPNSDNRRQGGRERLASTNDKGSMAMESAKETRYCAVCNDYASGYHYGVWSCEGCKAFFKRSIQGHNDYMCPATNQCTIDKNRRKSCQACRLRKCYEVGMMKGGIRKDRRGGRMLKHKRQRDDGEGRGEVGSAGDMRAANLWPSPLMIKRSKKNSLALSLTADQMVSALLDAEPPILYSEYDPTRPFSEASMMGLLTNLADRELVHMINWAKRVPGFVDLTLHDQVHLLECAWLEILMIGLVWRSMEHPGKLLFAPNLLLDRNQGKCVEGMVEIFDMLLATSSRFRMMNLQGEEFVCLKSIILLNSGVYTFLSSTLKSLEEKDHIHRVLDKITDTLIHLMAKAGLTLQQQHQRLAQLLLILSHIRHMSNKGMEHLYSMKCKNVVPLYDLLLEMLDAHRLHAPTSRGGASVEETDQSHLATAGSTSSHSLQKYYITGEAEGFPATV

T2: GR (Homo sapiens, UniProt P04150)
T2 construct: expressed in transfected cells; host or cells: COS-7
T2 sequence (P04150 1-777): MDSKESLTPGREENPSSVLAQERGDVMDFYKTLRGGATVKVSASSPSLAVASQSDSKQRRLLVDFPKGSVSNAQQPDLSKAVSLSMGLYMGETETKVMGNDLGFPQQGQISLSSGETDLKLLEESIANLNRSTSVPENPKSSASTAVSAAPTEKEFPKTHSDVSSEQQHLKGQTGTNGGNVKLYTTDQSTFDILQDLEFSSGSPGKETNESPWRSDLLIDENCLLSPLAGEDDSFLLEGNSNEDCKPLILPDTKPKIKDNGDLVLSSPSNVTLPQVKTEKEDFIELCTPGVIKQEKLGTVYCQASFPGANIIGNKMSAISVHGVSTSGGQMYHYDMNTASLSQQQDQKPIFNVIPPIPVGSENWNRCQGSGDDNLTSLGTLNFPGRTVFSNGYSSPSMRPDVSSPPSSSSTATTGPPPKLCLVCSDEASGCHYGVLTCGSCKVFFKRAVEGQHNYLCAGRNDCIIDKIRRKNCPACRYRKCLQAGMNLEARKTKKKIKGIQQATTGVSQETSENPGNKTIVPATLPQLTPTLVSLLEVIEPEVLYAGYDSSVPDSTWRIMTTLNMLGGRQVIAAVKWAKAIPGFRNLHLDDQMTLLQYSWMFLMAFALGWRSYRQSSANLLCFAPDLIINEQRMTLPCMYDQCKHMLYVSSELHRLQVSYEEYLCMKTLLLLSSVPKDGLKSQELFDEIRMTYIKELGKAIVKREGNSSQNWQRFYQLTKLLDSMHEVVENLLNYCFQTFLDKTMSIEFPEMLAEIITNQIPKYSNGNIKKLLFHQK

T3: PR (Homo sapiens, UniProt P06401)
T3 construct: expressed in transfected cells; host or cells: COS-7
T3 sequence (P06401 1-933): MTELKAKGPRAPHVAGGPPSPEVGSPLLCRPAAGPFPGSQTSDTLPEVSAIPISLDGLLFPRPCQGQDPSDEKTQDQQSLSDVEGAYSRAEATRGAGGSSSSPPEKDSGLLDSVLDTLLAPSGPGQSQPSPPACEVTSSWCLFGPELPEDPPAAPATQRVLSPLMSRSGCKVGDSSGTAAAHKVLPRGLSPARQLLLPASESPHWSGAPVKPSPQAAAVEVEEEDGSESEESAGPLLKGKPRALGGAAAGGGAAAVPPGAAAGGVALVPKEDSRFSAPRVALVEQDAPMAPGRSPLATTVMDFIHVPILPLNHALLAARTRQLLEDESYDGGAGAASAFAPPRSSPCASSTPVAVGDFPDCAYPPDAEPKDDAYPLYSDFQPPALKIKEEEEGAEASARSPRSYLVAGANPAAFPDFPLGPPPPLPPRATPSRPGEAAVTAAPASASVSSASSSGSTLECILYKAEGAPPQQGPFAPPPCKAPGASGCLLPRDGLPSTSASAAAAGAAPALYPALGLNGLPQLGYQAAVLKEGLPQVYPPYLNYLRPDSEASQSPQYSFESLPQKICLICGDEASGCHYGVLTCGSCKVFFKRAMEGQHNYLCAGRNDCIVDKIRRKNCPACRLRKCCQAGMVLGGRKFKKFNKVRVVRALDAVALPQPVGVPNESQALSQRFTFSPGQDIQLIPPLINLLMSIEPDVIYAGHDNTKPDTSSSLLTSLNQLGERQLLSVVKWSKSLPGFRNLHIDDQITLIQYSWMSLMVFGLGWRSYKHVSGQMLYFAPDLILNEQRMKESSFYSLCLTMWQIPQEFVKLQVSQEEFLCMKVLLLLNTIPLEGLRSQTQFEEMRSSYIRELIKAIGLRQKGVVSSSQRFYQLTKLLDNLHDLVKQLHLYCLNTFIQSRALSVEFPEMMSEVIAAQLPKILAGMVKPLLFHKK

T4: VDR (Homo sapiens, UniProt P11473)
T4 construct: expressed in transfected cells; host or cells: COS-7
T4 sequence (P11473 1-427): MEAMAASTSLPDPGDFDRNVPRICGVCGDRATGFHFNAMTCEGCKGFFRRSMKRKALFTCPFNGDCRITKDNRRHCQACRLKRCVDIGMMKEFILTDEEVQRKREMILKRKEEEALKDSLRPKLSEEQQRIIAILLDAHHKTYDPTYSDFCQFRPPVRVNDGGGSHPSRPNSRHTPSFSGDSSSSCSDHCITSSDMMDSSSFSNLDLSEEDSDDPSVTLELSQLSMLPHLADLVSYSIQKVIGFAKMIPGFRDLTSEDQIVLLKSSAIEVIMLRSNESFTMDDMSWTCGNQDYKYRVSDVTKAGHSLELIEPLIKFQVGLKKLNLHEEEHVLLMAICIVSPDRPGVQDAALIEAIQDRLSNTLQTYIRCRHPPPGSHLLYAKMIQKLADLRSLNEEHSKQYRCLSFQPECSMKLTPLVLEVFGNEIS

T5: interaction of LCoR and ERα (Homo sapiens, UniProt P03372)
T5 construct: expressed in transfected cells; host or cells: COS-7
T5 sequence (P03372 1-595): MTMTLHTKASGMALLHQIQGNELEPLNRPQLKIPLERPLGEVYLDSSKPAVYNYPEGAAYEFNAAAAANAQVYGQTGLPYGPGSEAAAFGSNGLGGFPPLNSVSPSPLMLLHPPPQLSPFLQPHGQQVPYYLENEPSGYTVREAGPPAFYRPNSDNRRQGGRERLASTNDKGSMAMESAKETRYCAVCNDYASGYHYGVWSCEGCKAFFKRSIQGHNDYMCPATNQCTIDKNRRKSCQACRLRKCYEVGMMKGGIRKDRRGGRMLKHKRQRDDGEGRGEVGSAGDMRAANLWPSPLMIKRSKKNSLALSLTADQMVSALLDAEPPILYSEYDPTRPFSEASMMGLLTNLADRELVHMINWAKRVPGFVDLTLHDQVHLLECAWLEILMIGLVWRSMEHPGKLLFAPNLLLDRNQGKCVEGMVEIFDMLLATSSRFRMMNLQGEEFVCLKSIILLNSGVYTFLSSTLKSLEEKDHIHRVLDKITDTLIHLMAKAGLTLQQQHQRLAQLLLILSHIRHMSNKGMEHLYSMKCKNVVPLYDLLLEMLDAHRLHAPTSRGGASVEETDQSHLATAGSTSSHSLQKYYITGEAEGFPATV

B1: LCoR: novel 433 amino acid nuclear receptor corepressor polypeptide (SEQ ID NO:2) with a single LXXLL NR box (protein, listed as Homo sapiens)
chain: MQRMIQQFAAEYTSKNSSTQDPSQPNSTKNQSLPKASPVTTSPTAATTQNPVLSKLLMADQDSPLDLTVRKSQSEPSEQDGVLDLSTKKSPCAGSTSLSHSPGCSSTQGNGRPGRPSQYRPDGLRSGDGVPPRSLQDGTREGFGHSTSLKVPLARSLQISEELLSRNQLSTAASLGPSGLQNHGQHLILSREASWAKPHYEFNLSRMKFRGNGALSNISDLPFLAENSAFPKMALQAKQDGKKDVSHSSPVDLKIPQVRGMDLSWESRTGDQYSYSSLVMGSQTESALSKKLRAILPKQSRKSMLDAGPDSWGSDAEQSTPGQPYPTSDQEGDPGSKQPRKKRGRYRQYNSEILEEAISVVMSGKMSVSKAQSIYGIPHSTLEYKVKERLGTLKNPPKKKMKLMRSEGPDVSVKIELDPQGEAAQSANESKNE
B2: LCoR-LSKAA: LCoR with point mutagenesis of NR box LSKLL to LSKAA at position 53 (protein)
chain: MQRMIQQFAAEYTSKNSSTQDPSQPNSTKNQSLPKASPVTTSPTAATTQNPVLSKAAMADQDSPLDLTVRKSQSEPSEQDGVLDLSTKKSPCAGSTSLSHSPGCSSTQGNGRPGRPSQYRPDGLRSGDGVPPRSLQDGTREGFGHSTSLKVPLARSLQISEELLSRNQLSTAASLGPSGLQNHGQHLILSREASWAKPHYEFNLSRMKFRGNGALSNISDLPFLAENSAFPKMALQAKQDGKKDVSHSSPVDLKIPQVRGMDLSWESRTGDQYSYSSLVMGSQTESALSKKLRAILPKQSRKSMLDAGPDSWGSDAEQSTPGQPYPTSDQEGDPGSKQPRKKRGRYRQYNSEILEEAISVVMSGKMSVSKAQSIYGIPHSTLEYKVKERLGTLKNPPKKKMKLMRSEGPDVSVKIELDPQGEAAQSANESKNE

Assays:
Type in all cases: cell-based
ERα = biological target: T1, ERα; experiment: Transient transfection luciferase reporter, ERα transactivation in COS-7 cells; details: coexpression in COS-7 cells, 10^−7M hormone, ERE3-TATA-pXP2 reporter
Experimental: (§1) All cell lines were cultured under the recommended conditions. COS-7 cells grown in […] in DMEM without phenol red, supplemented with 10% FBS were transfected in medium without serum with lipofectamine 2000 (Invitrogen, Burlington, Ont.) with 100 ng of nuclear receptor expression vectors as indicated, 200 ng of TIF-2 or TIF-2.1, as indicated, 250 ng of reporter plasmid, 250 ng of infemal control vector pCMV-βgal, and various concentrations of LCoR/pSG5 or LCoR-LSKAA/pSG5 expression vectors and pSG5 carrier. Medium was replaced 24 h after transfection by a medium containing charcoal-stripped serum and ligand (100 nM) and TSA (3 μM) for 18 h, as indicated. Cells were harvested in 200 […] of reporter lysis buffer (Promega).
(§2) COS-7 cells were cotransfected with expression vectors for ERα HEG0 (A and C) or GR (D) or PR (F) or VDR (H), ERE3-TATA-pXP2 (A and C), GRE5/pXP2 (D and F) or VDRE3tk/pXP2 (H) luciferase reporter vectors, pCMV-β-gal as internal control, and LCoR/pSG5 or LSKAA/pSG5 expression vectors as indicated. Cells were treated with 10^−7M of hormones (solid bars) or vehicle (open bars). Normalized luciferase activities (RLU) are the means±SEM from at least 3 experiments. […] Cells were transfected as in FIG. 5A with LCoR, TIF-2 or TIF2.1 as indicated. […]

GR = biological target: T2, GR; experiment: Transient transfection luciferase reporter, GR transactivation in COS-7 cells; details: 1 μg of transfected LCoR, COS-7; one range given for GR, PR and VDR together
Experimental: as §1, §2

PR = biological target: T3, PR; experiment: Transient transfection luciferase reporter, PR transactivation in COS-7 cells; details: 1 μg of transfected LCoR, COS-7; one range given for GR, PR and VDR together
Experimental: as §1, §2

VDR = biological target: T4, VDR; experiment: Transient transfection luciferase reporter, VDR transactivation in COS-7 cells; details: 1 μg of transfected LCoR, COS-7; one range given for GR, PR and VDR together
Experimental: as §1, §2

5×17 mer-tk promoter = experiment: GAL4-LCoR repression of 5×17 mer-tk promoter in COS-7 cells
Experimental: as §1, §2

nuclear receptors = experiment: Ligand-dependent transactivation by nuclear receptors (summary)
Experimental: as §1, §2

[1] = biological target: T5, interaction of LCoR and ERα; experiment: BRET assay of LCoR-ERα interaction in living COS-7 cells; details: rluc-LCoR-LSKAA versus rluc-LCoR, COS-7 cells
Experimental: Readings were started immediately after coelenterazine H addition, and 10 repeated measures were taken.
Interaction of ERα and LCoR in vivo was further tested by bioluminescence resonance energy transfer (BRET) in living COS-7 cells transiently cotransfected with plasmids expressing ERα-EYFP and LCoR-rluc fusion proteins. […] BRET ratios were calculated as described in experimental procedures.

Molecule | repression of hormone-dependent transactivation by ERα (ERα) | repression of ligand-activated transcription, glucocorticoid receptor (GR) | repression of ligand-activated transcription, progesterone receptor (PR) | repression of ligand-activated transcription, vitamin D receptor (VDR) | effect on the 5×17 mer-tk promoter (5×17 mer-tk promoter) | inhibition of ligand-dependent transactivation by nuclear receptors (nuclear receptors) | effect of NR box mutation on interaction with ERα (BRET) [1]
B1 | dose-dependent repression | 2.2-5 fold | 2.2-5 fold | 2.2-5 fold | had no effect | up to 5 fold | 
B2 | had no effect |  |  |  |  |  | largely disrupted hormone-dependent interaction and reduced hormone-independent interaction of the two proteins by approximately two-fold
